From publication PMC5125619 (Nature, 2016)

B1: H3 peptide (H3 residues 1–9) (peptide)
peptide: ARTKQTARK

Key:
[1] = target: FAM-labelled RBBP5 peptide (residues 330–363) mixed with ASH2L(SPRY) (human) (UniProt Q15291); assay: fluorescence polarisation
MLL3 SET domain = MLL3 SET domain (human, UniProt Q8NEZ4 4757-4911); assay: crystal structure
Chain of MLL3 SET domain (human, UniProt Q8NEZ4 4757-4911) (Q8NEZ4 4757-4911): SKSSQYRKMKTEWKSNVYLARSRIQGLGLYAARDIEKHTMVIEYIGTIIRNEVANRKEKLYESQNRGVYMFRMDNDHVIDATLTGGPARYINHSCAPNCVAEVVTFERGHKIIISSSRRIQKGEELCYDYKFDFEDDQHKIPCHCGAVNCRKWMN

Molecule	Kd [1] [nM]	binding result (MLL3 SET domain)
MLL1 SET domain (from UniProt Q03164 3829-3945) (domain or fragment)	> 100000	–
MLL3 SET domain (from UniProt Q8NEZ4 4757-4911) (domain or fragment)	100	–
B1	–	binds
